Laboratory results as given in patent publication US8143025B2, “Antibodies against vascular endothelial growth factor receptor-1” (ImClone LLC, priority 2004, dated 2012).

Legend:
[1] = target: human VEGFR-2 alkaline phosphatase (Homo sapiens, UniProt P35968); experiment: ELISA-based specificity assay (Example 2A); format: binding; conditions: FIG. 6C
Procedure: (§1) To determine the specificity of an anti-VEGFR-1 monoclonal antibody to human VEGFR-I, purified antibodies 18F1 were tested in an ELISA-based assay. One μg/ml of recombinant human VEGFR-I Fc, mouse VEGFR-I Fc, mouse VEGFR-2 Fe, or human VEGFR-2 alkaline phosphatase was coated with PBS in a 96-well microtiter plates at 4° C. over night. After wash, the receptor coated plates were blocked with PBS containing 5% Dry Milk and 0.05% Tween 20. Serial dilutions of primary antibody 18F1 to human VEGFR-I, MF1 to mouse VEGFR-I. ICl 1 to human VEGFR-2, or DClOl to mouse VEGFR-2 were incubated in the receptor-coated plates for 30 minutes. After wash secondary anti-primary HRP conjugate antibodies was incubated in the plates for 30 minutes. Plates were washed and incubated with the substrate TMB (3,3′,5,5′-tetra-methylbenzidine) for color development. The absorbance at 450 nm was read as OD values for quantification of binding activity of antibodies. Data were analyzed using a GraphPad Prism Software.

mouse VEGFR-2 = mouse VEGFR-2 (Mus musculus, UniProt P35918); experiment: ELISA-based specificity assay (Example 2A); format: binding; conditions: FIG. 6D
Chain of mouse VEGFR-2 (P35918 20-762 limits assumed): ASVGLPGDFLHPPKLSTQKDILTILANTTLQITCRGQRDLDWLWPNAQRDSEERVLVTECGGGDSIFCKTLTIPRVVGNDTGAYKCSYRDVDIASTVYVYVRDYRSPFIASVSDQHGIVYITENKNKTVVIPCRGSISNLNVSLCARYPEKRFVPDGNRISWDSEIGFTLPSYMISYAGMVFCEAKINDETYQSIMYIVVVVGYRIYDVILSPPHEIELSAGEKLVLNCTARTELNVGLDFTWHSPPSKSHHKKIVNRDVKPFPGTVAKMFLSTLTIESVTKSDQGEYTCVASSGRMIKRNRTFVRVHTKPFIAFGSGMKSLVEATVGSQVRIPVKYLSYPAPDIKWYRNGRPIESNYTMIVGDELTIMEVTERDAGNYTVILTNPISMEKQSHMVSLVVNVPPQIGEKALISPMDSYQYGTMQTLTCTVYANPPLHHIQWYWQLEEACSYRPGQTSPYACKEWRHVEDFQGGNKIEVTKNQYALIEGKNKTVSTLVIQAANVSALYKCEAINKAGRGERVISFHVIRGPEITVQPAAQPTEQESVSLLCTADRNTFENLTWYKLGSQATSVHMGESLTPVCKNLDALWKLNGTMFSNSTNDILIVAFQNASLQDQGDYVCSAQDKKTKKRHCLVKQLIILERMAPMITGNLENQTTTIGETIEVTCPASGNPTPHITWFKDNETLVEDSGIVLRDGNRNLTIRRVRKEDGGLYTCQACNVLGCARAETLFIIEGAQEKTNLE
Procedure: as §1

mouse VEGFR-I Fc = target: T1, mouse VEGFR-I Fc (Mus musculus, UniProt P35969); experiment: ELISA-based specificity assay (Example 2A); format: binding; conditions: FIG. 6B
T1 sequence (P35969 23-759 limits assumed): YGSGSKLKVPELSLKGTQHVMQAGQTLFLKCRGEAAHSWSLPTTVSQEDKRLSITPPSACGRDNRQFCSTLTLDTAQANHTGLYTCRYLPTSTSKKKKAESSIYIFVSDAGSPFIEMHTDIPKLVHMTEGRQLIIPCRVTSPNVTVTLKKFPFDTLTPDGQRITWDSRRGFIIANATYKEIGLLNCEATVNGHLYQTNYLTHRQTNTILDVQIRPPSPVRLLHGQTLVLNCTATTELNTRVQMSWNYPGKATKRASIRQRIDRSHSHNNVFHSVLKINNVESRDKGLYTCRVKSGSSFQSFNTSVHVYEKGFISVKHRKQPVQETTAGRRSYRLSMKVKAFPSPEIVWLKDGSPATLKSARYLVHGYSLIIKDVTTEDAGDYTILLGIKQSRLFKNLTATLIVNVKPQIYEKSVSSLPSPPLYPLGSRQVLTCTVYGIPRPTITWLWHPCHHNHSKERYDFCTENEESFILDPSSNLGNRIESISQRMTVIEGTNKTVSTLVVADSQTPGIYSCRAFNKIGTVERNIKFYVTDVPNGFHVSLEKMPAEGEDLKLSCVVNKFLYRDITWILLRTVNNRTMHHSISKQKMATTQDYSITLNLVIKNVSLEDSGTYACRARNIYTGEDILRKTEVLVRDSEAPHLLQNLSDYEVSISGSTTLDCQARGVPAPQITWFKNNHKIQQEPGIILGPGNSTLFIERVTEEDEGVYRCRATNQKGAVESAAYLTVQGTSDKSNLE
Procedure: as §1

[2] = target: T2, recombinant human VEGFR-I Fc (Homo sapiens, UniProt P17948); experiment: ELISA-based specificity assay (Example 2A); format: binding; conditions: FIG. 6A
T2 construct: soluble recombinant VEGFR-I Fc (rhuVEGFR-1 Fc) proteins were purchased from (R&D Systems Inc); purchased R&D Systems Inc
T2 sequence (P17948 27-758 limits assumed): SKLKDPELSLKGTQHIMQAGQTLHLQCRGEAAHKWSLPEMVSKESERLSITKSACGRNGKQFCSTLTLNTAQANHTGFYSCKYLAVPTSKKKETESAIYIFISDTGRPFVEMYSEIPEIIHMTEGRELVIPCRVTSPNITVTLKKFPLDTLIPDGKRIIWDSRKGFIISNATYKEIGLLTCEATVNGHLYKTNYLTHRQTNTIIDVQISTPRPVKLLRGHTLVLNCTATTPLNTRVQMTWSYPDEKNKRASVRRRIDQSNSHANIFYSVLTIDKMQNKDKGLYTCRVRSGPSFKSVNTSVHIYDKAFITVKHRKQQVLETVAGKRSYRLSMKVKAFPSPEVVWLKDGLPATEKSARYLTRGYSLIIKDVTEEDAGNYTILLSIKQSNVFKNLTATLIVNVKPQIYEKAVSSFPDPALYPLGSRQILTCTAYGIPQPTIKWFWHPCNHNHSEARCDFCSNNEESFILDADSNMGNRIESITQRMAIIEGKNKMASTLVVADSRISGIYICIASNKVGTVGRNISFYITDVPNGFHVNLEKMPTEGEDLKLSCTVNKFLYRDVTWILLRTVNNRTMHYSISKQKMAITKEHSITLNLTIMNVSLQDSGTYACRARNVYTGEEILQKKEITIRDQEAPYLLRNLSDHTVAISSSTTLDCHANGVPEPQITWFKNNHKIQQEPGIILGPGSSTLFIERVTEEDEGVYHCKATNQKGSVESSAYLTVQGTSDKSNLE
Procedure: as §1

[3] = tested on: HT-29 human colon carcinoma cells; experiment: Soft agarose colony formation; format: cell-based; conditions: 66 nM antibody, 10 ng/mL VEGF-A or 50 ng/mL VEGF-B, 14 days, p<0.03
Procedure: One mL DMEM medium containing 10% FBS and 1% agarose (Cambrex Corporation, East Rutherford, N.J.) was plated in each well of six well plates. HT-29 human colon carcinoma cells in serum free medium were treated with 66 nM 18F1 or control IgG for 1 hour and followed by treatment with 10 ng/mL VEGF-A or 50 ng/mL VEGF-B for additional 4 hours. The treated cells were mixed with 1 mL 10% FBS DMEM containing 0.5% agarose and the appropriate antibodies and/or ligands. One mL of this suspension, containing 250 cells, was plated in each well on top of the 1% agarose base layer. After 2 days, additional medium containing antibodies and/or ligands was added to the wells to keep the agarose hydrated. Cells were allowed to grow for 14 days at 37° C. Afterwards, colonies larger than 50 μm in diameter were counted using a dissecting microscope. Statistical analysis was performed using hiStat Statistical Software (V2.03, GraphPad Software, San Diego, Calif.)

Chain of human VEGFR-2 alkaline phosphatase (P35968 20-764 limits assumed): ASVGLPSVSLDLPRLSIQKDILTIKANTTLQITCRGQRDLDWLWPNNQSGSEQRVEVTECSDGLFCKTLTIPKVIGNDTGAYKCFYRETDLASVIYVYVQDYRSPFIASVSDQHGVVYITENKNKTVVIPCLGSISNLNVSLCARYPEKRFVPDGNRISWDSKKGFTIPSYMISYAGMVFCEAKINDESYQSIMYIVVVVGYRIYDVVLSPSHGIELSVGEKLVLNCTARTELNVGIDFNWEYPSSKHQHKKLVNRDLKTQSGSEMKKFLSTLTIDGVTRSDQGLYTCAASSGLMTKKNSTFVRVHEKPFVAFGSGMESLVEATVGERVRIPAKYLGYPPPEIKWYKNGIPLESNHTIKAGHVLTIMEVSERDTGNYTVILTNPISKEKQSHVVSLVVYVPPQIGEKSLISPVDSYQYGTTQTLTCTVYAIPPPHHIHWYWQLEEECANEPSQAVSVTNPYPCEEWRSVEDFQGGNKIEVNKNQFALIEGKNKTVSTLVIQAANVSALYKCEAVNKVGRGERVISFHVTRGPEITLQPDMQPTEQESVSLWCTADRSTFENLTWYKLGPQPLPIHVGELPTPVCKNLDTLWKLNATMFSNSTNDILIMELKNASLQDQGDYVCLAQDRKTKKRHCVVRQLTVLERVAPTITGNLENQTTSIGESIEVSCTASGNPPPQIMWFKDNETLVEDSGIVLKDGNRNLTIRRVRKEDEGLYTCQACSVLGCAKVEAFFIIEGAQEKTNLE

Substance: 18F1: human anti-VEGFR-1 monoclonal antibody clone; VL SEQ ID NO: 16, VH SEQ ID NO: 20 [Clone 18F1]
- cross reactivity with human VEGFR-2 [1]: no cross reactivity
- cross reactivity with mouse VEGFR-2 (mouse VEGFR-2): no cross reactivity
- cross reactivity with mouse VEGFR-I (mouse VEGFR-I Fc): no cross reactivity
- binding specificity to human VEGFR-I [2]: binding of human VEGFR-I
- VEGF-A or VEGF-B induced colony formation [3]: completely suppressed
